Measurements: paper PMC3425544, “The S100A10 Subunit of the Annexin A2 Heterotetramer Facilitates L2-Mediated Human Papillomavirus Infection” (PLoS ONE, 2012)
No end group written: not given here.

What was measured:
[1] = test system: HPV16 infection of COS-1 cells; conditions: pre-incubation, compared to control peptides; ref [28]; cited from earlier work
Excerpt: Though the interaction between L1 and HSPG appears to be the primary initiator of epithelial cell infection, the electrostatic interaction to the negatively charged polysaccharides is generally thought to be non-specific, and may lead to a cascade of subsequent capsid conformational changes.

annexin A2 = assay: EPR binding of L2 peptide to annexin A2; conditions: scrambled competitor 5∶1
Procedure: (§1) Recombinant annexin A2 was expressed in BL21(DE3) Escherichia coli cells and purified using reversible Ca^2+-dependent binding to negatively charged phospholipid vesicles followed by size exclusion chromatography. A pET23A vector containing the S100A10 sequence (a gift from Volker Gerke) was expressed in BL21(DE3) cells as previously described. Both proteins were stored at 4°C in 20 mM HEPES buffer at pH 7.4, containing 100 mM NaCl with the addition of 1 mM dithiothreitol. Concentrations of all proteins and peptides, including the A2t complex, were determined using bicinchoninic acid assays (Pierce Thermo Scientific, Rockford, IL) compared to measured absorbance of albumin standards at 562 nm. Purified annexin A2 and S100A10 were combined at a molar ratio of 1∶1 and concentrated to over 8 µg/µl. The mixture was incubated overnight at 4°C, and then loaded onto a superdex 200 10/300 GL (GE Healthcare USA) column equilibrated in the previously mentioned HEPES buffer. The eluted A2t peak was collected and subjected to peptide binding assays.
The L2_108–126 peptides used in our EPR studies were synthesized with a cysteine at the N-terminus, and followed by a spacer of 3 physiological amino acids (C-IVS) preceding the canonical L2_108–126 and L2 scrambled sequences (C-IVS-[…] and C-IVS-[…] respectively). Peptides were combined with 8× molar excess paramagnetic label (1-oxyl-2, 2, 5, 5-tetramethyl-Δ3-pyrroline-3-methyl) (R1) methanethiosulfonate (MTSL), (Toronto Research Chemicals, Canada) and left to react overnight at 4°C. Free label was removed by gel filtration (PD10 GE, United Kingdom). All peptides were solubilized into HEPES buffer. For competition assays, the scrambled peptide was non-paramagnetic labeled with an N-acetylated MTSL paramagnetic-label analog (1-acetyl-2,2,5,5- tetramethyl-Δ3-pyrroline-3-methyl) (R1′) at an 8× molar excess to emulate the paramagnetic label on control peptides. Binding interactions were examined by combining paramagnetically-labeled L2 peptide with A2t, BSA, ANXA2, or S100A10 (20 µM, 100 µM, 100 µM, 100 µM, and 100 µM respectively) in 10 µL volumes of the HEPES buffer, confined by glass capillaries, and measured at room temperature over a period of 24 hours using a Bruker EMX X-band EPR spectrometer. For the cysteine blocked S100A10, S100A10 was treated with R1′ and excess label was removed via gel filtration (see above) before the addition of paramagnetic labeled peptides. […] To quantify the amount of bound peptide spectra of all tested proteins in combination with the L2_108–126 or ScrL2 peptides were compared to the spectra of L2_108–126 or ScrL2 peptides alone in solution using a spectra analyzing software (EPR 130, University of California, Los Angeles). […]

S100A10 subunit of A2t = assay: EPR binding of L2 peptide to S100A10; conditions: EPR
Procedure: as §1
The L2_108–126 peptides used in our EPR studies were synthesized with a cysteine at the N-terminus, and followed by a spacer of 3 physiological amino acids (C-IVS) preceding the canonical L2_108–126 and L2 scrambled sequences (C-IVS-[…] and C-IVS-[…] respectively). Peptides were combined with 8× molar excess paramagnetic label (1-oxyl-2, 2, 5, 5-tetramethyl-Δ3-pyrroline-3-methyl) (R1) methanethiosulfonate (MTSL), (Toronto Research Chemicals, Canada) and left to react overnight at 4°C. Free label was removed by gel filtration (PD10 GE, United Kingdom). All peptides were solubilized into HEPES buffer. For competition assays, the scrambled peptide was non-paramagnetic labeled with an N-acetylated MTSL paramagnetic-label analog (1-acetyl-2,2,5,5- tetramethyl-Δ3-pyrroline-3-methyl) (R1′) at an 8× molar excess to emulate the paramagnetic label on control peptides. Binding interactions were examined by combining paramagnetically-labeled L2 peptide with A2t, BSA, ANXA2, or S100A10 (20 µM, 100 µM, 100 µM, 100 µM, and 100 µM respectively) in 10 µL volumes of the HEPES buffer, confined by glass capillaries, and measured at room temperature over a period of 24 hours using a Bruker EMX X-band EPR spectrometer. For the cysteine blocked S100A10, S100A10 was treated with R1′ and excess label was removed via gel filtration (see above) before the addition of paramagnetic labeled peptides. The experiments were done in triplicate with measurements taken at 12 db, in 5 scan intervals. All spectra were normalized to the same number of scans. To quantify the amount of bound peptide spectra of all tested proteins in combination with the L2_108–126 or ScrL2 peptides were compared to the spectra of L2_108–126 or ScrL2 peptides alone in solution using a spectra analyzing software (EPR 130, University of California, Los Angeles). By subtracting the alone peptide spectra from that of the combined samples we derive the spectra of the bound spectra, and based on double integration, relate this spectra to a concentration of the peptide that bound to the target protein.

[2] = test system: A2t (annexin A2 heterotetramer); assay: EPR binding of L2 peptide to A2t; set-up: species or system human; conditions: scrambled competitor 5∶1 molar ratio
Excerpt: Next, we wanted to determine if there was a specific interaction between the L2_108–126 peptide and A2t using electron paramagnetic resonance (EPR) spectroscopy. EPR is a method of magnetic resonance spectroscopy measuring unpaired electrons whose underlying basic concepts are not unlike the more widely used technique of nuclear magnetic resonance (NMR) (reviewed in [43]). When coupled with site-directed paramagnetic-labeling, such as the attachment of a moiety with an unpaired electron to a cysteine residue, EPR can be used to obtain structural information within a small vicinity of the paramagnetic-label’s positions along the protein sequence. As a paramagnetic-label becomes locally constrained, such as when bound to another protein, its spectra will drastically change as visualized by a decrease in line amplitude and increased line-broadening. Therefore, EPR provides an in vitro biochemical method that measures protein-protein interactions by monitoring changes in the spectra recorded for a labeled protein in different experimental settings.
For our purposes, an N-terminal cysteine (with a 3 native aa spacer) contained in the L2_108–126 peptide (C-IVS-[…]) was paramagnetic-labeled (an unpaired-electron-containing small molecule was cross-linked via a disulfide bond to the peptide), and its spectra were analyzed after incubation with and without purified human recombinant A2t or controls. […]
Recombinant annexin A2 was expressed in BL21(DE3) Escherichia coli cells and purified using reversible Ca^2+-dependent binding to negatively charged phospholipid vesicles followed by size exclusion chromatography. […] Concentrations of all proteins and peptides, including the A2t complex, were determined using bicinchoninic acid assays (Pierce Thermo Scientific, Rockford, IL) compared to measured absorbance of albumin standards at 562 nm. […]

recombinant annexin A2 [3] = target: T1, recombinant annexin A2 (human, UniProt P07355 1-339); assay: electron paramagnetic resonance (EPR) spectroscopy; paramagnetic-labeled peptide (20 µM) mixed with protein (100 µM) in 10 µL HEPES buffer (20 mM HEPES pH 7.4, 100 mM NaCl) in glass capillaries, room temperature; percent bound from subtraction of the free-peptide spectrum and double integration; 'relative' binding constant K = [AB]/[A][B]; conditions: both partners purified
T1 construct: also called ANXA2; annexin A2 subunit
T1 sequence (P07355 whole entry): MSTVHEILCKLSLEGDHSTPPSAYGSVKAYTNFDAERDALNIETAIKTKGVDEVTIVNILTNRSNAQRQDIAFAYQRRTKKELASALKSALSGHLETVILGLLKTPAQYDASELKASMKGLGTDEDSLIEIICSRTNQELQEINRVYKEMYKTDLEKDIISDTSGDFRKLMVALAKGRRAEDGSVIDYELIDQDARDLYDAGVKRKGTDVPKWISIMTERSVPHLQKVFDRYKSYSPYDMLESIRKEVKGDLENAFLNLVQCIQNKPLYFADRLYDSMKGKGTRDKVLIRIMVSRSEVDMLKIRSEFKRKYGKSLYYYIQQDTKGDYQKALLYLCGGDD

recombinant S100A10 [4] = target: T2, recombinant S100A10 (human, UniProt P60903 1-97); assay: as above; conditions: both partners purified
T2 construct: also called S100A10 subunit; p11; source: E. coli BL21(DE3), pET23A vector, purified
T2 sequence (P60903 whole entry): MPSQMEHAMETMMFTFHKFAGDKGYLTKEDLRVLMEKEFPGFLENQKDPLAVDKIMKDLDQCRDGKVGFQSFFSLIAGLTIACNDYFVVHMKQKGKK

[5] = target: T3, annexin A2 heterotetramer (A2t), purified human recombinant (human, UniProt P07355 1-339; P60903 1-97); assay: as above; conditions: both partners purified
T3 construct: also called A2t complex
T3 sequence (P07355 whole entry, chain 1 of 2): as the sequence (P07355 whole entry) above
T3 sequence (P60903 whole entry, chain 2 of 2): as the sequence (P60903 whole entry) above

[6] = target: T4, cysteine-blocked S100A10 (αCys-S100A10) (human, UniProt P60903 1-97); assay: as above; conditions: both partners purified
T4 construct: source: E. coli BL21(DE3), purified, then treated with R1′ and gel filtered
T4 sequence (P60903 whole entry): as above

recombinant annexin A2 [7] = target: T1, recombinant annexin A2; assay: electron paramagnetic resonance (EPR) spectroscopy; conditions: both partners purified
recombinant S100A10 [8] = target: T2, recombinant S100A10; assay: electron paramagnetic resonance (EPR) spectroscopy; conditions: both partners purified
[9] = target: T3, annexin A2 heterotetramer (A2t), …; assay: electron paramagnetic resonance (EPR) spectroscopy; conditions: both partners purified
[10] = target: T3, annexin A2 heterotetramer (A2t), …; assay: cell-based or functional assay

## L2_108–120: L2_108–120 peptide of ref 28 (LVEETSFIDAGAP; UniProt P03107 108-120, looked up, fragment)
[1]
  reduction of infection of COS-1 cells: approximately 60%

## C-IVS-IESPVSDTALGTPEIFVSA [ScrL2, scrambled version of the L2_108–126 peptide, reference compound]
Annexin A2
  competition for L2 peptide – annexin A2 interaction: partially competed off
S100A10 subunit of A2t; S100A10 cysteine-blocked with R1′ (αCys-S100A10), paramagnetic-labeled peptide, mean of three separate experiments
  relative % bound to cysteine-blocked S100A10: 6.3%
S100A10 subunit of A2t; scrambled competitor 5∶1
  competition for L2 peptide – S100A10 interaction: minimally competed off
[2]
  competition for L2_108–126 – A2t interaction: No significant changes in spectra signal were observed

B1: HPV16 L2_(108–126) peptide, paramagnetic-labeled (C-IVS-LVEETSFIDAGAPTSVPSI) (peptide)
peptide: CIVSLVEETSFIDAGAPTSVPSI
modifications: also: paramagnetic label, site not given here
notes: source: synthetic peptide (Synthetic Biomolecules or Biomer Technology), HPLC purified to >95%
Recombinant annexin A2 [3]
  percent of peptide bound: 23.6%
Recombinant S100A10 [4]
  Ka: 150000 M⁻¹
  percent of peptide bound: 92.5%
[5]
  Ka: 100000 M⁻¹
  percent of peptide bound: 78%
[6]
  percent of peptide bound: 73.1%
Recombinant annexin A2 [7]
  percent of peptide bound with ScrL2 at 5:1: 17.7%
Recombinant S100A10 [8]
  percent of peptide bound with ScrL2 at 5:1: 91%
[9]
  percent of peptide bound with ScrL2 at 5:1: 75.8%

B2: HPV16 L1–L2(GGDD) mutant pseudovirions (complex, human papillomavirus type 16)
chain 1: MSLWLPSEATVYLPPVPVSKVVSTDEYVARTNIYYHAGTSRLLAVGHPYFPIKKPNNNKILVPKVSGLQYRVFRIHLPDPNKFGFPDTSFYNPDTQRLVWACVGVEVGRGQPLGVGISGHPLLNKLDDTENASAYAANAGVDNRECISMDYKQTQLCLIGCKPPIGEHWGKGSPCTNVAVNPGDCPPLELINTVIQDGDMVDTGFGAMDFTTLQANKSEVPLDICTSICKYPDYIKMVSEPYGDSLFFYLRREQMFVRHLFNRAGAVGENVPDDLYIKGSGSTANLASSNYFPTPSGSMVTSDAQIFNKPYWLQRAQGHNNGICWGNQLFVTVVDTTRSTNMSLCAAISTSETTYKNTNFKEYLRHGEEYDLQFIFQLCKITLTADVMTYIHSMNSTILEDWNFGLQPPPGGTLEDTYRFVTSQAIACQKHTPPAPKEDPLKKYTFWEVNLKEKFSADLDQFPLGRKFLLQAGLKAKPKFTLGKRKATPTTSSTSTTAKRKKRKL
chain 2: MRHKRSAKRTKRASATQLYKTCKQAGTCPPDIIPKVEGKTIAEQILQYGSMGVFFGGLGIGTGSGTGGRTGYIPLGTRPPTATDTLAPVRPPLTVDPVGPSDPSIVSGGDDTSFIDAGAPTSVPSIPPDVSGFSITTSTDTTPAILDINNTVTTVTTHNNPTFTDPSVLQPPTPAETGGHFTLSSSTISTHNYEEIPMDTFIVSTNPNTVTSSTPIPGSRPVARLGLYSRTTQQVKVVDPAFVTTPTKLITYDNPAYEGIDVDNTLYFSSNDNSINIAPDPDFLDIVALHRPALTSRRTGIRYSRIGNKQTLRTRSGKSIGAKVHYYYDLSTIDPAEEIELQTITPSTYTTTSHAASPTSINNGLYDIYADDFITDTSTTPVPSVPSTSLSGYIPANTTIPFGGAYNIPLVSGPDIPINITDQAPSLIPIVPGSPQYTIIADAGDFYLHPSYYMLRKRRKRLPYFFSDVSLAA
[10]
  pseudo-infection of HaCaT cells (percent GFP-positive, 48 h) by the mutant PsV against wild-type PsV: > 10 fold reduction
